Changes are numbered by the printed parent chain. In names and notes the source's numbering stands.
B1: Klebsiella pneumoniae UDP-glucose pyrophosphorylase (galU gene product), wild type (enzyme, UniProt A6TAK9 1-300, looked up)
chain: MAALNSKVRKAVIPVAGLGTRMLPATKAIPKEMLPLVDKPLIQYVVNECIAAGITEIVLVTHSSKNSIENHFDTSFELEAMLEKRVKRQLLEEVQSICPPHVTIMQVRQGLAKGLGHAVLCAHPVVGDEPVAVILPDVILDEYESDLSRDNLAEMISRFDETGASQIMVEPVEDVTAYGVVDCKGESLKPGESVPMVGVVEKPKADVAPSNLAVVGRYVLSADIWPLLAKTPPGAGDEIQLTDAIDMLIEKETVEAYHMKGKSHDCGNKLGYMQAFVEYGIRHKTLGDDFKAWLETAVAK
notes: UDP-glucose pyrophosphorylase (galU gene product) of K. pneumoniae subsp. pneumoniae type strain DSM 30104 (ATCC 13883, NCTC 9633), cloned from genomic DNA; UniProt entry printed for the AlphaFold query; 34.6 kDa with tag; no cleavage of the tag is described; Also made from pETDuet-1 with the same oligomeric state; also called KpUGP; KpUGP wt; not shown: Strep-tagII, N-terminal, kept
B2: KpUGP F276A (enzyme)
chain: B1 chain with F276A
notes: UDP-glucose pyrophosphorylase (galU gene product) of K. pneumoniae DSM 30104; mutant of Strep-KpUGP; tag as in m1; no cleavage described
B3: KpUGP E69D (enzyme)
chain: B1 chain with E69D
notes: as for B2
B4: KpUGP K27A (enzyme)
chain: B1 chain with K27A
notes: as for B2
B5: KpUGP D73N (enzyme)
chain: B1 chain with D73N
notes: as for B2
B6: KpUGP E77A (enzyme)
chain: B1 chain with E77A
notes: as for B2
B7: KpUGP E238R (enzyme)
chain: B1 chain with E238R
notes: UDP-glucose pyrophosphorylase (galU gene product) of K. pneumoniae DSM 30104; mutant of Strep-KpUGP that mimics R237 of KpGalF; tag as in m1; no cleavage described
B8: KpUGP K10A (enzyme)
chain: B1 chain with K10A
notes: as for B2
B9: KpUGP K65A (enzyme)
chain: B1 chain with K65A
notes: as for B2
B10: KpUGP D73A (enzyme)
chain: B1 chain with D73A
notes: UDP-glucose pyrophosphorylase (galU gene product) of K. pneumoniae DSM 30104; mutant of Strep-KpUGP; tag as in m1; no cleavage described; dissociates progressively during storage on ice
B11: KpUGP E32A (enzyme)
chain: B1 chain with E32A
notes: UDP-glucose pyrophosphorylase (galU gene product) of K. pneumoniae DSM 30104; active site mutant of Strep-KpUGP; tag as in m1; the discussion speaks only of the mutant of E32; also called E32 mutant
B12: KpUGP R108A (enzyme)
chain: B1 chain with R108A
notes: as for B2
B13: KpUGP D38A (enzyme)
chain: B1 chain with D38A
notes: as for B2
B14: KpUGP E77Q (enzyme)
chain: B1 chain with E77Q
notes: as for B2
B15: KpUGP F276H (enzyme)
chain: B1 chain with F276H
notes: as for B2
B16: KpUGP R108K (enzyme)
chain: B1 chain with R108K
notes: UDP-glucose pyrophosphorylase (galU gene product) of K. pneumoniae DSM 30104; mutant of Strep-KpUGP; tag as in m1; no cleavage described; also called R108R (as printed once in the text)
B17: KpUGP K65R (enzyme)
chain: B1 chain with K65R
notes: as for B2
B18: KpUGP E69A (enzyme)
chain: B1 chain with E69A
notes: as for B2
B19: KpUGP K27Q (enzyme)
chain: B1 chain with K27Q
notes: UDP-glucose pyrophosphorylase (galU gene product) of K. pneumoniae DSM 30104; mutant of Strep-KpUGP; tag as in m1; no cleavage described; eluted predominantly as dimers
B20: KpUGP E238Q (enzyme)
chain: B1 chain with E238Q
notes: as for B2
B21: KpUGP D38N (enzyme)
chain: B1 chain with D38N
notes: as for B2
B22: KpUGP K10R (enzyme)
chain: B1 chain with K10R
notes: as for B2
B23: KpUGP E238A (enzyme)
chain: B1 chain with E238A
notes: as for B2
B24: Klebsiella pneumoniae GalF (galF gene product), wild type (natural protein, UniProt Q48447 1-298, looked up)
chain: MNMANLKAVIPVAGLGMHMLPATKAIPKEMLPIVDKPMIQYIVDEIVAAGIKEIVLVTHSSKNAVENHFDTSYELEALLEQRVKRQLLAEVQAICPPGVTIMNVRQAQPLGLGHSILCARPVVGDNPFVVVLPDIILDGGTADPLRYNLAAMIARFNETGRSQVLAKRMPGDLSEYSVIQTKEPMVAEGQVARIVEFIEKPDEPQTLDSDLMAVGRYVLSADIWAELERTEPGAWGRIQLTDAIAELAKKQSVDAMLMTGESYDCGKKMGYMQAFVTYGMRNLKEGAKFRESIKKLLA
notes: GalF (galF gene product) of K. pneumoniae subsp. pneumoniae type strain DSM 30104 (ATCC 13883, NCTC 9633), cloned from genomic DNA into MCS1 of pETDuet-1; UniProt entry printed for the AlphaFold query; 34.3 kDa with tag; no cleavage of the tag is described; also called KpGalF; KpGalF wt
B25: KpGalF M17T/H18R/S115A/S177G/R237E (natural protein)
chain: B24 chain with M17T, H18R, S115A, S177G, R237E
notes: GalF (galF gene product) of K. pneumoniae DSM 30104; mutant of His-KpGalF; also called KpGalF quintuple mutant; quintuple revertant mutant

Experiments:
[1] = molecular target: the molecule itself; assay: not stated; data not shown; KpUGP in HEPES-NaOH (pH 8.0) buffer
[2] = molecular target: the molecule itself; assay: SEC; Superose 6 Increase 10/300 GL; 50 mM Tris-HCl (pH 8.0), 300 mM NaCl, 10 mM MgCl2; oligomeric state calculated from elution volumes of proteins of known size
[3] = molecular target: the molecule itself; assay: native gel or EMSA; blue native PAGE, 4.5 µg of each protein on a uniform 12% native gel, followed by in-gel activity staining
[4] = molecular target: the molecule itself; assay: SEC; Superose 6 Increase 10/300 GL; 50 mM Tris-HCl (pH 8.0), 300 mM NaCl, 10 mM MgCl2; oligomeric state calculated from elution volumes of proteins of known size; remark: listed apart in the source
[5] = molecular target: the molecule itself; assay: SEC; Superdex 200 10/300 GL (KpUGP active site mutants); 50 mM Tris-HCl (pH 8.0), 300 mM NaCl, 10 mM MgCl2

| Protein | stoichiometry N [2] | stoichiometry N [3] | further results |
| --- | --- | --- | --- |
| B1 | 4.5 |  | stoichiometry N [1]: 4 |
| B2 | 4.6 | 4 |  |
| B3 | 4.6 | 4 |  |
| B4 | 2.1 |  |  |
| B5 | 2.4 |  |  |
| B6 | 4.5 | 4 |  |
| B7 |  |  | stoichiometry N [4]: 3.1 |
| B8 | 3.1 |  |  |
| B9 | 2 |  |  |
| B10 | 2.7 |  |  |
| B11 |  |  | stoichiometry N [5]: 2 |
| B12 | 2.2 |  |  |
| B13 | 4.1 | 4 |  |
| B14 | 4.6 | 4 |  |
| B15 | 4.5 | 4 |  |
| B16 | 2.4 |  |  |
| B17 | 2.4 |  |  |
| B18 | 4.4 | 4 |  |
| B19 | 2.2 |  |  |
| B20 | 4.4 | 4 |  |
| B21 | 4.2 | 4 |  |
| B22 | 4.5 | 4 |  |
| B23 | 4.4 | 4 |  |
| B24 |  |  | stoichiometry N [4]: 1.9 |
| B25 |  |  | stoichiometry N [4]: 1.7 |

Reference: publication PMC11796359, “Identification and characterization of the functional tetrameric UDP-glucose pyrophosphorylase from Klebsiella pneumoniae” (mBio, 2024)
